Legend:
HUαβ [1] = target: T1, HUαβ (Escherichia coli, UniProt P0ACF0;P0ACF4 1-90;1-90); assay: ITC
HUαβ [2] = target: T1, HUαβ; assay: ITC; remark: listed apart in the source

T1 sequence (P0ACF0 whole entry, chain 1 of 2): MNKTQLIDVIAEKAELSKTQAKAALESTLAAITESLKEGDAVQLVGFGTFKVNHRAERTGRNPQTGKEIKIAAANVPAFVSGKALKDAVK
T1 sequence (P0ACF4 whole entry, chain 2 of 2): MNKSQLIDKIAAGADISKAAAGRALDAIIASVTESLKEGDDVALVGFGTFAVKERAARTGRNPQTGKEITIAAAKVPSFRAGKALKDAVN

B1: 15 bp DNA (dsDNA)
DNA 1: CGGTCAGTTCAAGGC
DNA 2: GCCTTGAACTGACCG
binding signal (HUαβ [1]): 2.8 ± 1 k10/k6 ratio

B2: 38 bp DNA (dsDNA)
DNA 1: CGGTCAGTTCAAGCCCTTCTAAGTTTGTAGACACCAGC
DNA 2: GCTGGTGTCTACAAACTTAGAAGGGCTTGAACTGACCG
binding result (HUαβ [2]): binds
